Results taken from article PMC2133148 (The Journal of Cell Biology, 1999).
No end group written: not given here.

Experiments:
Assay in all cases: two-hybrid
[1] = target: PS1-loop C (T281P, L282I) (LexA fusion bait) (human, UniProt P49768 264-294, T281P | L282I)
[2] = target: PS2-loop C (LexA fusion bait) (human, UniProt P49810 270-300)
[3] = target: T1, PS2-loop D (LexA fusion bait) (human, UniProt P49810 301-319, also: LexA fusion bait)
T1 chain (looked up): TVGMAKLDPSSQGALQLPY

[4] = target: PS2-loop B (LexA fusion bait) (human, UniProt P49810 270-319)
[5] = target: PS1-loop C (T281P, T291A) (LexA fusion bait) (human, UniProt P49768 264-294, T281P | T291A)
[6] = target: PS1-loop C T281P (LexA fusion bait) (human, UniProt P49768 264-294, T281P)
[7] = target: PS1-loop C (LexA fusion bait) (human, UniProt P49768 264-294)
[8] = target: PS1-loop C T291A (LexA fusion bait) (human, UniProt P49768 264-294, T291A)

interaction relative to PS1-loop C T281P [1]: 1.7 fold of T281P alone
fold increase in β-galactosidase activity over the lamin B control [2]: 74 fold
fold increase in β-galactosidase activity over the lamin B control [3]: 2.2 fold
fold increase in β-galactosidase activity over the lamin B control [4]: 8.5 fold
interaction relative to PS2-loop C [5]: ~2 fold of the wild-type PS2-loop bait
interaction relative to PS2-loop C [6]: ~0.5 fold of the PS2 level
fold increase in β-galactosidase activity over the lamin B control [7]: 5.8 fold
interaction relative to PS2-loop C [8]: ~0.33 fold of the PS2 level
B1: calmyrin (clone 7, full-length cDNA in pJG4-5) (natural protein, human, UniProt Q99828 1-191, looked up)
chain: MGGSGSRLSKELLAEYQDLTFLTKQEILLAHRRFCELLPQEQRSVESSLRAQVPFEQILSLPELKANPFKERICRVFSTSPAKDSLSFEDFLDLLSVFSDTATPDIKSHYAFRIFDFDDDGTLNREDLSRLVNCLTGEGEDTRLSASEMKQLIDNILEESDIDRDGTINLSEFQHVISRSPDFASSFKIVL
